Results taken from US20160369002A1.

Tests used:
Test in all cases: SPR; set-up for the IgG1 comparator not stated
Human CD64 (human) = Human CD64 (human) (UniProt P12314)
Human CD32b (human) = Human CD32b (human) (UniProt P31994)
Human CD16b (human) = Human CD16b (human) (UniProt O75015)
Human CD16a (human) = Human CD16a (human) (UniProt P08637)
Human CD32a (human) = Human CD32a (human) (UniProt P12318)
Chain of Human CD32a (human) (P12318 36-218 limits assumed): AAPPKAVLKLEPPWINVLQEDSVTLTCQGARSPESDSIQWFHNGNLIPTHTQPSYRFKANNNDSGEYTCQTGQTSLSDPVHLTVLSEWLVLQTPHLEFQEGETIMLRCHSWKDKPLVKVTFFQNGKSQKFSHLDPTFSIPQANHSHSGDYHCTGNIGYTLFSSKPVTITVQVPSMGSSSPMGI

Chain of Human CD32b (human) (P31994 46-217 limits assumed): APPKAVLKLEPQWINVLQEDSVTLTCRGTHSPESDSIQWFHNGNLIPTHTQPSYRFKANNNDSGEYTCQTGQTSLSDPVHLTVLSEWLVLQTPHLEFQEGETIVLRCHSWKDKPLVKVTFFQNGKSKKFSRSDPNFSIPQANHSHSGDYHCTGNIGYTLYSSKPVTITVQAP
Chain of Human CD16b (human) (O75015 17-200 limits assumed): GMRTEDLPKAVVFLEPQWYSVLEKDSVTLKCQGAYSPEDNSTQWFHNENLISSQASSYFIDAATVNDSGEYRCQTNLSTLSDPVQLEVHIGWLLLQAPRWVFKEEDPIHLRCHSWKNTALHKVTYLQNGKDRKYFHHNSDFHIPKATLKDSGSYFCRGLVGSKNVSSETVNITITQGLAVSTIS
Chain of Human CD64 (human) (P12314 16-288 limits assumed): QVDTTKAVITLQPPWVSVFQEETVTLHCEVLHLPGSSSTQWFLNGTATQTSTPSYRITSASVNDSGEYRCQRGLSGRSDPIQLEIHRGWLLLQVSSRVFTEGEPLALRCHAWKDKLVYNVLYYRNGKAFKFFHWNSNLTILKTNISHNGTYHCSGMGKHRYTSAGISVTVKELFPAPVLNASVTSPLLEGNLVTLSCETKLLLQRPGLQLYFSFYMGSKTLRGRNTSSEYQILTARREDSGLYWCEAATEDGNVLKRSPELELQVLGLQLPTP
Chain of Human CD16a (human) (P08637 17-208 limits assumed): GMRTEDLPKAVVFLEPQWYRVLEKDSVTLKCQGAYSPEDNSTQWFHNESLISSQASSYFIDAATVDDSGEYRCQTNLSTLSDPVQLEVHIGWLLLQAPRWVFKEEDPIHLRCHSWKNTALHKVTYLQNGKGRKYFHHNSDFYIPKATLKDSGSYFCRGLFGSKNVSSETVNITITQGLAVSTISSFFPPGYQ

- Kd (Human CD64 (human)): 0.24 nM
- Kd (Human CD32b (human)): 1180 nM
- Kd (Human CD16b (human)): 2410 nM
- Kd (Human CD16a (human)): 630 nM
- Kd (Human CD32a (human)): 379 nM
Substance: Full length human IgG1 antibody
